Biological target: T1, streptavidin (from Streptomyces avidinii, 50677, Sigma-Aldrich) (Streptomyces avidinii, UniProt P22629 37-163, limits assumed)
T1 construct: Commercial protein used as received
Experiment: graphene FET sensor, Langmuir fit of response against concentration; mixed monolayer (25% bio-GrBP5, 75% SS-GrBP5) washed before SA was added, BSA background
Description: A 20 μl drop of water was placed on the sensor and the resistance was allowed to equilibrate. The device was maintained in a hydration chamber at 100% humidity to prevent evaporation. Analyte was added to the static drop on the sensor in the appropriate concentrations, so that the total volume of the drop never exceeded 35μl. Data was collected from two distinct devices and each experiment was reproduced at least once. See supporting information for additional data.
By combining the anti-fouling properties of SS-GrBP5 with the biotinylated probe peptide, we created a sensor capable of selective detection of streptavidin in a bovine serum albumin solution. A mixed peptide monolayer consisting of 25% bio-GrBP5 and 75% SS-GrBP5 was formed in a single step from a solution with an overall concentration of 10 μg/ml. […] Guided by the results in FIG. 21, we introduced 5 μg/ml BSA to the sensor and detected no binding (FIG. 22C). We then introduced sequentially increasing concentrations of SA to the sensor, while maintaining the levels of BSA, and were able to reliably detect streptavidin at 100 ng/ml, although some signal was present at even lower concentrations (FIG. 22C). […] The overall stability of the bio-GrBP5 appears to have been improved by co-assembly with SS-GrBP5, displaying very high coverage and density. […]

T1 sequence (P22629 37-163 limits assumed): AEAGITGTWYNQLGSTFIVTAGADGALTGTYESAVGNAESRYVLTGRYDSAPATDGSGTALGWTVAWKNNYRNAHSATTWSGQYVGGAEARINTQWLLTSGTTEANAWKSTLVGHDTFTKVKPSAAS

B1: Bio-GrBP5 (biotin-graphite binding peptide fusion, Bio-IMVTESSDYSSY) (peptide)
peptide: IMVTESSDYSSY
HELM: PEPTIDE1{[O=C1N[C@H]2[C@H](CS[C@H]2CCCCC(=O)[*:2])N1].I.M.V.T.E.S.S.D.Y.S.S.Y}$$$$V2.0
SMILES: CC[C@H](C)[C@H](NC(=O)CCCC[C@@H]1SC[C@@H]2NC(=O)N[C@@H]21)C(=O)N[C@@H](CCSC)C(=O)N[C@H](C(=O)N[C@H](C(=O)N[C@@H](CCC(=O)O)C(=O)N[C@@H](CO)C(=O)N[C@@H](CO)C(=O)N[C@@H](CC(=O)O)C(=O)N[C@@H](Cc1ccc(O)cc1)C(=O)N[C@@H](CO)C(=O)N[C@@H](CO)C(=O)N[C@@H](Cc1ccc(O)cc1)C(=O)O)[C@@H](C)O)C(C)C
notes: Synthetic 12-mer with N-terminal biotin; In the assays it was self-assembled on graphite (nanowires or monolayer) or on a graphene FET sensor; also called biotinilated peptide; bio-GrBP5 peptide nanowires
Kd: ~1.5 nM
